Experimental data from PMC10901363 (Science Advances, 2024).
Where “and” joins values, the source holds several entries; their conditions need not be identical. Equal entries are not always repeated. Where no end group is shown, it is not given here. [ ]: non-standard residue; d: D form. pY = N[C@@H](Cc1ccc(OP(=O)(O)O)cc1)C(=O)O

Columns and labels:
PTPN21 PTP-EGFP [1] = target: T1, PTPN21 PTP-EGFP (UniProt Q16825 872-1174); assay: MST; details: both partners purified
T1 construct: also called WT PTP-EGFP; source: E. coli Rosetta (DE3), purified (as the untagged domain); not shown: His-sumo, N-terminal, cleaved; EGFP, C-terminal, kept
T1 sequence (looked up): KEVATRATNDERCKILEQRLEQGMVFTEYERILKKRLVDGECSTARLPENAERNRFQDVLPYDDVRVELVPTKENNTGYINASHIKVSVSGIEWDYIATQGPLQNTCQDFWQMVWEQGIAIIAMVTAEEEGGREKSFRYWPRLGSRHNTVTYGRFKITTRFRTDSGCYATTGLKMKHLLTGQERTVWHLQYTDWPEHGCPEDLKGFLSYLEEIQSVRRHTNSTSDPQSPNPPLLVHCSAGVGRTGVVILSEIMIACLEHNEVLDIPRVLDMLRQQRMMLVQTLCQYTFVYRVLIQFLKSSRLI

mini PTPN21-EGFP = target: T2, mini PTPN21-EGFP (UniProt Q16825 878-1174; Q16825 878-1174); assay: MST; + Ins(1,3)P2
T2 chain: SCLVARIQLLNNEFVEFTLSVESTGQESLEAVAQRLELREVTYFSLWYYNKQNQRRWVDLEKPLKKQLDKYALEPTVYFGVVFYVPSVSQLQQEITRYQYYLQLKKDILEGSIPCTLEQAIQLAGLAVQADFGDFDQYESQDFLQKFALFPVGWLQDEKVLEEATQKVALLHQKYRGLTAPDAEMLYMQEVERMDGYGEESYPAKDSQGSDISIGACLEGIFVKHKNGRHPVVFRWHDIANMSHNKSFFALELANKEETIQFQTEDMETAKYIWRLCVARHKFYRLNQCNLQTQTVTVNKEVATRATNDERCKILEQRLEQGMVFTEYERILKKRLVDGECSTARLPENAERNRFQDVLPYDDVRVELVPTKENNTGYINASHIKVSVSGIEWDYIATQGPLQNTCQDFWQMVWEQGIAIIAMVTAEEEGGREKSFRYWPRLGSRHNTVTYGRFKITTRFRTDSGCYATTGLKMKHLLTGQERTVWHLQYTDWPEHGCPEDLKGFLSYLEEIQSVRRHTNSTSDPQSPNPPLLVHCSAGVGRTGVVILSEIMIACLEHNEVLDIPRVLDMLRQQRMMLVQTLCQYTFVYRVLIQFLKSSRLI

PTPN21 PTP C1108S-EGFP [2] = target: T3, PTPN21 PTP C1108S-EGFP (UniProt Q16825 872-1174, C1108S); assay: MST
T3 sequence: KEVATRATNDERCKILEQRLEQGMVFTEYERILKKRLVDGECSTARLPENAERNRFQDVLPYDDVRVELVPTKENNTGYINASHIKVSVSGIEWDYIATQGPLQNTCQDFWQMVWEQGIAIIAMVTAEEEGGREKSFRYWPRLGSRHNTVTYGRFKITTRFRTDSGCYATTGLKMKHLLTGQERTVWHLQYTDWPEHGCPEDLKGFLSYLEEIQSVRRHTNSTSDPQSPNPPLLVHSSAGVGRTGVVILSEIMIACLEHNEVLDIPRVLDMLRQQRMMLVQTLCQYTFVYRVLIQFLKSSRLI

[3] = target: T4, PTPN21 PTP E1067D C1108S-EGFP (UniProt Q16825 872-1174, E1067D | C1108S); assay: MST
T4 sequence: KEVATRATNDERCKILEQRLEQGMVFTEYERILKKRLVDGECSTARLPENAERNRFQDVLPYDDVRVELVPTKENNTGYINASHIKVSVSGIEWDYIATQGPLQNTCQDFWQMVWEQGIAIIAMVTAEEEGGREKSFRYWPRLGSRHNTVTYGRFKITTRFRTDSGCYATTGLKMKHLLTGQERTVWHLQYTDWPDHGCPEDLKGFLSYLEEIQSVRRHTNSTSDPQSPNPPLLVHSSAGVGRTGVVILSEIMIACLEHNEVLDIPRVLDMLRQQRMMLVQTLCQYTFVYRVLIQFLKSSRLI

PTPN21 PTP R1114Q [4] = target: T5, PTPN21 PTP R1114Q (UniProt Q16825 872-1174, R1114Q); assay: MST
T5 sequence: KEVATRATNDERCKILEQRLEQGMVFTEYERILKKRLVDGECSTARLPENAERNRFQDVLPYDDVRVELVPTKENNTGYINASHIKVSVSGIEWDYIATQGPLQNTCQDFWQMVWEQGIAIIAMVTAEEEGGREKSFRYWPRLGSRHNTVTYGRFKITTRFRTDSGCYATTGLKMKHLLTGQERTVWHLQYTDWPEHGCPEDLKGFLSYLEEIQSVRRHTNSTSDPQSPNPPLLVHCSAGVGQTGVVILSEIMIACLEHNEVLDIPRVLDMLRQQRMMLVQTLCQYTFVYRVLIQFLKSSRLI

PTPN21 PTP C1108S [5] = target: T6, PTPN21 PTP C1108S (UniProt Q16825 872-1174, C1108S); assay: crystal structure; PTP C1108S with twofold molar excess of Src pY530 peptide, hanging drop, 4°C; details: both partners purified
T6 construct: also called PTP^PTPN21 C1108S; source: E. coli Rosetta (DE3), purified (as the wild type); not shown: His-sumo, N-terminal, cleaved
T6 sequence (looked up): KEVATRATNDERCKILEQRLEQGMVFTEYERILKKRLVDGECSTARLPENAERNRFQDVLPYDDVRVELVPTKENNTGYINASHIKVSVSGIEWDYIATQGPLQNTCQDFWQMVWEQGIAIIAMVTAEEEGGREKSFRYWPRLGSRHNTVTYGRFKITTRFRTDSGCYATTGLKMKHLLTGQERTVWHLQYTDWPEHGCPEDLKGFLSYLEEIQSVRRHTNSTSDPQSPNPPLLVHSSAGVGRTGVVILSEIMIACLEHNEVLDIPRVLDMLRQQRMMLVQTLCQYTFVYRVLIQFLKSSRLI

PTPN21 PTP C1108S-EGFP [6] = target: T7, PTPN21 PTP C1108S-EGFP (UniProt Q16825 872-1174, C1108S); assay: MST; fluorescent PTP mutant-EGFP (80 nM) mixed with an increasing amount of Src pY530 peptide; 20 mM Hepes pH 7.0, 150 mM NaCl, 0.3 mM TCEP, 1.5 mM BSA; details: both partners purified
T7 construct: also called PTP^PTPN21 C1108S; source: E. coli Rosetta (DE3), purified (as the wild type); not shown: His-sumo, N-terminal, cleaved; EGFP, C-terminal, kept
T7 sequence (looked up): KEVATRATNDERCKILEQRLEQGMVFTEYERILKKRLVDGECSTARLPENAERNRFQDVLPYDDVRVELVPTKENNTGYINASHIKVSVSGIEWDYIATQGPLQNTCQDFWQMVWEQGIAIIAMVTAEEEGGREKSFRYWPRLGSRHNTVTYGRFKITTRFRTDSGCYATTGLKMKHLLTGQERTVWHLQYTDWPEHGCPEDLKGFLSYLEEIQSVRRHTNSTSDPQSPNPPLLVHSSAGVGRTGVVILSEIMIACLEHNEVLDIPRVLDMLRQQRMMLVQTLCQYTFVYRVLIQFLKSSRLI

[7] = target: T8, PTPN21 PTP E1067D C1108S-EGFP (UniProt Q16825 872-1174, E1067D | C1108S); assay: as above; details: both partners purified
T8 construct: also called PTP^PTPN21 C1108S E1067D; source: E. coli Rosetta (DE3), purified (as the wild type); not shown: His-sumo, N-terminal, cleaved; EGFP, C-terminal, kept
T8 sequence (looked up): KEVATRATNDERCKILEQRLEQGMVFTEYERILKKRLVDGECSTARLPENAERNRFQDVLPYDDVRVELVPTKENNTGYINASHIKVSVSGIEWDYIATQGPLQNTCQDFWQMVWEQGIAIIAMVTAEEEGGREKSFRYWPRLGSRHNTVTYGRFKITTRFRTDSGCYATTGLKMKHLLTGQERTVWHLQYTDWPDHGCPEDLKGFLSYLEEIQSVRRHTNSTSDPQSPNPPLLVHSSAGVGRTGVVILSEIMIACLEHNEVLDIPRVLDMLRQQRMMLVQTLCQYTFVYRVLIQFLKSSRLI

PTPN21 PTP R1114Q [8] = target: T9, PTPN21 PTP R1114Q (UniProt Q16825 872-1174, R1114Q); assay: as above; details: both partners purified
T9 construct: also called PTP^PTPN21 R1114Q; source: E. coli Rosetta (DE3), purified (as the wild type)
T9 sequence (looked up): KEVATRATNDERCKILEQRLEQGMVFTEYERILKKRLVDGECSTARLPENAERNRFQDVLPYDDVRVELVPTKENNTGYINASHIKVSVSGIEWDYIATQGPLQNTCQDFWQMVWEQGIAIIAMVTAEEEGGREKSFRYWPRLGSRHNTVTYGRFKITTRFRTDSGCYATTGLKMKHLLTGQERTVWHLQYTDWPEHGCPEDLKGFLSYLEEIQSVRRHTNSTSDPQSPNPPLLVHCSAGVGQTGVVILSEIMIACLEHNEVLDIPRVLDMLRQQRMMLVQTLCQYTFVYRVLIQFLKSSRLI

PTPN21 FERM-EGFP = target: T10, PTPN21 FERM-EGFP (UniProt Q16825 21-319); assay: MST
T10 chain: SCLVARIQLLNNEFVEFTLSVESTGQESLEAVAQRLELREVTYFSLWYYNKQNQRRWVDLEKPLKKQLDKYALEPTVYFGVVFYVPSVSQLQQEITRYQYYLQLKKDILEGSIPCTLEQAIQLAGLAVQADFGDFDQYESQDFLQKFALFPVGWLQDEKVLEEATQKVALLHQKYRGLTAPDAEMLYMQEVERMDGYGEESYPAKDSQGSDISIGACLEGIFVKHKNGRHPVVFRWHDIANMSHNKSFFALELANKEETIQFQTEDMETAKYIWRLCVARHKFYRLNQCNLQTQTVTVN

[9] = substrate: Cc1cc(=O)oc2c(F)c(OP(=O)(O)O)c(F)cc12; assay: fluorescent phosphatase assay, Michaelis-Menten; type: biochemical, Homo sapiens; details: 50 mM Hepes pH 7.0, 150 mM NaCl, 1 mM EDTA, 2 mM DTT, RT
PTPN21 PTP C1108S [10] = target: T6, PTPN21 PTP C1108S; assay: crystal structure; mini PTPN21 C1108S: FERM and PTP joined on one chain by a flexible linker, hanging drop, 4°C; details: both partners purified
PTPN21 PTP-EGFP [11] = target: T1, PTPN21 PTP-EGFP; assay: MST; PTP-EGFP fixed at 80 nM, FERM titrated from 300 μM to 0.09 nM; 20 mM Hepes pH 7.0, 150 mM NaCl, 0.3 mM TCEP, 1.5 mM BSA; mutants measured similarly; details: both partners purified

B1: HPV18 E7 CR3 domain (domain or fragment)
chain: AEPQRHTMLCMCCKCEARIKLVVESSADDLRAFQQLFLNTLSFVCPWCASQQ
notes: source: E. coli Rosetta (DE3), purified (as the PTPN21 domains); not shown: His-sumo, N-terminal, cleaved
Kd (PTPN21 PTP-EGFP [1]): ~2.8 nM
Kd (mini PTPN21-EGFP): 40.3 nM

B2: Src pY530 peptide (peptide)
peptide: STEPQ[pY]QPGENL
notes: also called Src pY530 synthetic peptide; Peptide Src pY530; source: synthetic peptide (ChinaPeptides Co. Ltd.)
Kd (PTPN21 PTP C1108S-EGFP [2]): 2930 nM
Kd [3]: 5610 nM
Kd (PTPN21 PTP R1114Q [4]): 6230 nM
binding result (PTPN21 PTP C1108S [5]): binds
binding result (PTPN21 PTP C1108S-EGFP [6]): binds
binding result [7]: binds
binding result (PTPN21 PTP R1114Q [8]): binds

B3: PTPN21 PTP domain (residues 872 to 1174) (domain or fragment)
chain: KEVATRATNDERCKILEQRLEQGMVFTEYERILKKRLVDGECSTARLPENAERNRFQDVLPYDDVRVELVPTKENNTGYINASHIKVSVSGIEWDYIATQGPLQNTCQDFWQMVWEQGIAIIAMVTAEEEGGREKSFRYWPRLGSRHNTVTYGRFKITTRFRTDSGCYATTGLKMKHLLTGQERTVWHLQYTDWPEHGCPEDLKGFLSYLEEIQSVRRHTNSTSDPQSPNPPLLVHCSAGVGRTGVVILSEIMIACLEHNEVLDIPRVLDMLRQQRMMLVQTLCQYTFVYRVLIQFLKSSRLI
Kd (PTPN21 FERM-EGFP): 2310 nM and 3480 nM and 1610 nM
Km [9]: 28.6 µM
kcat [9]: 1.2 s⁻¹

B4: PTPN21 PTP domain (PTP^PTPN21) (Homo sapiens; E1067D) (protein)
chain: KEVATRATNDERCKILEQRLEQGMVFTEYERILKKRLVDGECSTARLPENAERNRFQDVLPYDDVRVELVPTKENNTGYINASHIKVSVSGIEWDYIATQGPLQNTCQDFWQMVWEQGIAIIAMVTAEEEGGREKSFRYWPRLGSRHNTVTYGRFKITTRFRTDSGCYATTGLKMKHLLTGQERTVWHLQYTDWPDHGCPEDLKGFLSYLEEIQSVRRHTNSTSDPQSPNPPLLVHCSAGVGRTGVVILSEIMIACLEHNEVLDIPRVLDMLRQQRMMLVQTLCQYTFVYRVLIQFLKSSRLI
notes: PTP (phosphatase) domain, residues 872 to 1174; E. coli Rosetta (DE3), His-sumo tag removed
Km ([9]; 0.2 nM enzyme): 250.93 ± 15.69 µM
kcat ([9]; 0.2 nM enzyme): 38.32 ± 4.66 s⁻¹

B5: PTPN21 FERM domain (residues 21 to 319) (domain or fragment, UniProt Q16825 21-319, looked up)
chain: SCLVARIQLLNNEFVEFTLSVESTGQESLEAVAQRLELREVTYFSLWYYNKQNQRRWVDLEKPLKKQLDKYALEPTVYFGVVFYVPSVSQLQQEITRYQYYLQLKKDILEGSIPCTLEQAIQLAGLAVQADFGDFDQYESQDFLQKFALFPVGWLQDEKVLEEATQKVALLHQKYRGLTAPDAEMLYMQEVERMDGYGEESYPAKDSQGSDISIGACLEGIFVKHKNGRHPVVFRWHDIANMSHNKSFFALELANKEETIQFQTEDMETAKYIWRLCVARHKFYRLNQCNLQTQTVTVN
notes: also called FERM^PTPN21; source: E. coli Rosetta (DE3), purified (Ni-NTA, source Q, Superdex 200); not shown: His-sumo, N-terminal, cleaved
binding result (PTPN21 PTP C1108S [10]): binds
Kd (PTPN21 PTP-EGFP [11]): ~7600 nM
